Here are results for one molecule from PMC11017283 (Journal of Lipid Research, 2024).

This experiment deals with T1, mouse LPL (p.R324A) (mouse, UniProt P11152 28-474, p.R324A).
T1 sequence (looked up): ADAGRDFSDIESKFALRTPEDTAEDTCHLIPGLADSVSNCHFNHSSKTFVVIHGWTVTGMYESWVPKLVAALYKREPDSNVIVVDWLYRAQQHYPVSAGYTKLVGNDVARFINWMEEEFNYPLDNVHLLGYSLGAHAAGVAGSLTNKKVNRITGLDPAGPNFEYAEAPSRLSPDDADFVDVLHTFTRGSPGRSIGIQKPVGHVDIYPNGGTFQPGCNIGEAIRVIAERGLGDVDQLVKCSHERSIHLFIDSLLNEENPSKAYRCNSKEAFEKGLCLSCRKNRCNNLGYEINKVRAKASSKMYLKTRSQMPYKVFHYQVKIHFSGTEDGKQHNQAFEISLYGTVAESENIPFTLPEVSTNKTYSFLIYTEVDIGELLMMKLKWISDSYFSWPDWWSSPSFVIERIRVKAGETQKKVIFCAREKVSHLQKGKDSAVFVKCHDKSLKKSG
The experiment can be described thus: native gel or EMSA.

B1: recombinant human GPIHBP1, soluble (residues 1-131) (domain or fragment, UniProt Q8IV16 21-151, looked up)
chain: QTQQEEEEEDEDHGPDDYDEEDEDEVEEEETNRLPGGRSRVLLRCYTCKSLPRDERCNLTQNCSHGQTCTTLIAHGNTESGLLTTHSTWCTDSCQPITKTVEGTQVTMTCCQSSLCNVPPWQSSRVQDPTG
Turning to B1, the binding result was “binds”.
